These results are taken from patent US20260250399A1 (VIRIDIAN THERAPEUTICS, published 2026).

Assay [1] addresses T1, IGF-1R on cells (A549 human lung adenocarcinoma cells; primary human ocular choroid fibroblasts, HOCF) (human, UniProt P08069 31-1367). In words: cell-based or functional assay.
For assay [2], the target named is T1, IGF-1R on cells (A549 human lung …). The assay is described as follows: flow cytometry on A549 cells, binding dose response curve. As for the experimental part:
(§1) Cell binding: A549 human lung adenocarcinoma cells or primary human ocular choroid fibroblasts (HOCF) were incubated with varying concentrations of VRDN-5000 or teprotumumab. A single dose 50 nM IgG1 isotype control was used as negative control. Unbound antibody was removed by washing, and the cells were incubated with an Alexa Fluor 488-goat anti-human antibody and a cell impermeable dye to gate live cells. The median fluorescence intensity (MFI) of viable cells was measured by flow cytometry and the data were analyzed using FlowJo software. Dose curves were fitted using a non-linear regression model; log (agonist) vs response-variable slope (four parameters).
VRDN-5000 Binds With High Affinity To IGF-1R On A549 Cells. As illustrated in FIG. 3A-C, VRDN-5000 binding to A549 cells was assessed by flow cytometry and found to have similar binding distribution as teprotumumab at three different concentrations.
(In general: In flow cytometry, cells or beads pass a laser one at a time.)

Assay [3] has the same target. The assay is described as follows: flow cytometry on HOCF cells, binding dose response curve. The protocol: as §1
FIG. 5A-B illustrate VRDN-5000 binding to HOCF cells, which was assessed by flow cytometry and found to have largely similar binding as teprotumumab at three different concentrations.

T1 sequence (P08069 31-1367): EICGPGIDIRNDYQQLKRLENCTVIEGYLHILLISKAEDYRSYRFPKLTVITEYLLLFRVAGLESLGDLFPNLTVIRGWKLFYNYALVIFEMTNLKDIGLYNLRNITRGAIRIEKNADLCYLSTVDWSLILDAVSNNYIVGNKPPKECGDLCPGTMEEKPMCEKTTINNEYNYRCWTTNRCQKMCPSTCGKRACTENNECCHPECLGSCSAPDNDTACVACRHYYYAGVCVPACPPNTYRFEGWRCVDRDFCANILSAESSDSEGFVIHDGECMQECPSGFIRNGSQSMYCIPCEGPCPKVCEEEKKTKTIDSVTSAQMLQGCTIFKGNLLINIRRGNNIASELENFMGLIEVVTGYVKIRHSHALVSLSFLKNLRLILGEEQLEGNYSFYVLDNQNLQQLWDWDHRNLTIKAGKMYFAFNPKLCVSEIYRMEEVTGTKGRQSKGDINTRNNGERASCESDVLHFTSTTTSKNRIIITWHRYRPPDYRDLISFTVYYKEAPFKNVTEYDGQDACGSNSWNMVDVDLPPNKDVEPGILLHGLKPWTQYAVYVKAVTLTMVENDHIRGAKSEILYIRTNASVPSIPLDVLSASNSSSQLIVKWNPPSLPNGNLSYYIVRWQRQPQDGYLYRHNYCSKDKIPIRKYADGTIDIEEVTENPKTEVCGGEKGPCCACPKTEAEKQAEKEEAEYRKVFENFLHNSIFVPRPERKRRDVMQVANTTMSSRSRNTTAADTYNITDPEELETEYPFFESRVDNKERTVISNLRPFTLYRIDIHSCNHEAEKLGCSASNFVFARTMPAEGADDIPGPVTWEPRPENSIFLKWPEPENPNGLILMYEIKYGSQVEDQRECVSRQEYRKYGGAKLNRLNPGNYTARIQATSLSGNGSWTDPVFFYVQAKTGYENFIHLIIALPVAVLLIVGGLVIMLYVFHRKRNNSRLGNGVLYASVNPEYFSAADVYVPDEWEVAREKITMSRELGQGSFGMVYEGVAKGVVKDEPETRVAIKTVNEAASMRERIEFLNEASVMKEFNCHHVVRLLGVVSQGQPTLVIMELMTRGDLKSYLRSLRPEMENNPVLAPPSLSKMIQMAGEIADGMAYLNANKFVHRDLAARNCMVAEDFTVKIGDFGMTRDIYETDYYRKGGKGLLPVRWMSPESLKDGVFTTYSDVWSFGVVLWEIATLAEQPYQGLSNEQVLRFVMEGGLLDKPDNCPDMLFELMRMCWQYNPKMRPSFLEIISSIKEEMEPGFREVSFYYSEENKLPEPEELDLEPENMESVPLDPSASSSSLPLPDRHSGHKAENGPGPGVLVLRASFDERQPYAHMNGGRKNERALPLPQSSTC

B1: VRDN-5000 (antibody, human IgG1, kappa)
heavy: not shown
light: DVVMTQTPLSLPVSLGDPASISCRSSQSIVHSNVNTYLEWYLQKPGQSPRLLIYKVSNRFSGVPDRFSGSGAGTDFTLRISRVEAEDLGIYYCFQGSHVPPTFGGGTKLEIKRTVAAPSVFIFPPSDEQLKSGTASVVCLLNNFYPREAKVQWKVDNALQSGNSQESVTEQDSKDSTYSLSSTLTLSKADYEKHKVYACEVTHQGLSSPVTKSFNRGEC
notes: neither was used; also called VRDN-001
Take B1: in assay [1], the “IC50 of IGF-1 stimulated receptor phosphorylation on A549 cells (pIGF-1R ELISA)” value is 90 pM and the “IC50 of IGF-1 stimulated receptor phosphorylation on HOCF cells (pIGF-1R ELISA)” value was found to be 90 pM. The EC50 (as a rule, the midpoint of the concentration-response curve) in assay [2] came out at 0.1 nM. This molecule also yielded an EC50 in assay [3] of 0.4 nM.
